From article PMC8145704 (Microorganisms, 2021) come the findings set out here.

The stoichiometry N is the number of molecules, sites or subunits per partner or assembly. A word on the Kd: it is the constant that tells how readily two partners part at equilibrium.

Ends that are not written are not given here.

Common to all, as to settings: both partners purified
In assay [1] the target is T1, L60V-HBc capsids (Hepatitis B virus (genotype D; strain …, UniProt P03146 1-183, L60V).
T1 construct: copies: 240
Kind of assay: ITC. On the technique in general: Isothermal titration calorimetry measures the heat released or taken up as one component is titrated into another.

The target of assay [2] is T2, WT-HBc capsids (hepatitis B core protein, genotype D; strain ayw; GenBank: V01460.1) (Hepatitis B virus (genotype D; strain …, UniProt P03146 1-183).
T2 construct: also called HBc-WT; HBc-CLPs; copies: 240
In words: ITC.

In assay [3] the target is T3, F97L-HBc capsids (Hepatitis B virus (genotype D; strain …, UniProt P03146 1-183, F97L).
T3 construct: copies: 240
Kind of assay: ITC.

In assay [4] the target is T4, P5T-HBc capsids (Hepatitis B virus (genotype D; strain …, UniProt P03146 1-183, P5T).
T4 construct: copies: 240
In words: ITC.

Assay [5] addresses T2, WT-HBc capsids (hepatitis B core …). Kind of assay: peptide or protein array.
Assay [6] addresses T1, L60V-HBc capsids. In words: cryo-EM structure.
Assay [7] has as its target T3, F97L-HBc capsids. In words: cryo-EM structure.
For assay [8], the target named is T4, P5T-HBc capsids. In words: cryo-EM structure.

With GSLLGRMKGA (source: synthetic peptide) [Peptide P2 “GSLLGRMKGA”], the dH with L60V-HBc capsids [1] was -6.6 kcal/mol; in assay [2] it was -14.4 kcal/mol; in the assay with F97L-HBc capsids [3], -9.9 kcal/mol; in the assay with P5T-HBc capsids [4], -7.7 kcal/mol. In addition, the “stoichiometry N” value was 0.5 peptide/HBc with L60V-HBc capsids [1], 0.48 peptide/HBc in assay [2], 0.52 peptide/HBc with F97L-HBc capsids [3] and 0.45 peptide/HBc with P5T-HBc capsids [4].

B1: Peptide “SLLGRM” (core binding motif) (peptide)
peptide: H-SLLGRM-NH2
notes: shortened stretch of P2; source: synthetic peptide (Fmoc solid-phase synthesis, HPLC purified)
Consider B1, for which, in assay [2], the dissociation constant (Kd) stood at 130 µM, the dH was -8.3 kcal/mol and the “stoichiometry N” value came to 0.25 peptide/HBc.
With GSLLGRMKGA (not fully specified (C-terminus)) [Peptide P2 “GSLLGRMKGA” on µSPOT peptide microarray], the binding result in assay [5] is “binds”.
With MHRSLLGRMKGA (source: synthetic peptide) [Peptide P1 “MHRSLLGRMKGA”], the binding result in the assay with L60V-HBc capsids [6] is “binds”. The binding result with F97L-HBc capsids [7] is given as “binds”. For the same molecule, the binding result in the assay with P5T-HBc capsids [8] is reported as “binds”. In addition, in assay [2], binding was characterised by a dissociation constant (Kd) of 26 µM, the dH is -9 kcal/mol and the “stoichiometry N” value stood at 0.45 peptide/HBc.
